From the RNAGym collection of RNA variant scans (doi:10.7554/elife.80360)

B1: Twister Ribozyme (parent)
chain: AACACUGCCAAUGCCGGUCCCAAGCCCGGAUAAAAGUGGAGGGGGCGG

Variants of: B1
Assay: self-cleavage, relative activity (ratio to wild type); higher = more cleavage; co-transcriptional

In order of falling self-cleavage:
1. CACACUGCCAAUGCCGGUCCCAAGCCCGGAUAUAAGUGGAGGGGGCGG [A1C A33U]  0.268
2. CACACUGCCAAUGCCGGUCCCAAGCCCGCAUAAAAGUGGAGGGGGCGG [A1C G29C]  0.231
3. CACACUGCGAAUGCCGGUCCCAAGCCCGGAUAAAAGUGGAGGGGGCGG [A1C C9G]  0.23
4. CACACUGCCAAUGCCGGUCCCAAGCCCGGAUUAAAGUGGAGGGGGCGG [A1C A32U]  0.228
5. CACAGUGCCAAUGCCGGUCCCAAGCCCGGAUAAAAGUGGAGGGGGCGG [A1C C5G]  0.227
6. CACACUGCCAAUGCCGGUCCCAAGCCCGGAUAAAAGUCGAGGGGGCGG [A1C G38C]  0.22
7. CACACUGCCAGUGCCGGUCCCAAGCCCGGAUAAAAGUGGAGGGGGCGG [A1C A11G]  0.218
8. CACACUGCCAAUGCCGGUCCCAAGCCCGUAUAAAAGUGGAGGGGGCGG [A1C G29U]  0.215
9. CACACUGCCAAUGCCGGUCCCAAGCCCGGAUAACAGUGGAGGGGGCGG [A1C A34C]  0.214
10. CACACUGCCAAUGCCAGUCCCAAGCCCGGAUAAAAGUGGAGGGGGCGG [A1C G16A]  0.209
11. CACACUGCCAAUGCCGGUCCCAAGCCCGGGUAAAAGUGGAGGGGGCGG [A1C A30G]  0.206
12. CACAAUGCCAAUGCCGGUCCCAAGCCCGGAUAAAAGUGGAGGGGGCGG [A1C C5A]  0.198
13. CACACUGACAAUGCCGGUCCCAAGCCCGGAUAAAAGUGGAGGGGGCGG [A1C C8A]  0.196
14. CACACUGUCAAUGCCGGUCCCAAGCCCGGAUAAAAGUGGAGGGGGCGG [A1C C8U]  0.193
15. CACACUGCCAAUGCCGGUCCCAAGCCAGGAUAAAAGUGGAGGGGGCGG [A1C C27A]  0.192
16. CACACUGCCAAUGCCGGUCCCAAGUCCGGAUAAAAGUGGAGGGGGCGG [A1C C25U]  0.192
17. CACACUGCCAAUGCCGGUCCCAAGCCCGGAUAAAAGUAGAGGGGGCGG [A1C G38A]  0.189
18. CACACUGCCAAUGCCGGUCCCAAGCCCGGAUCAAAGUGGAGGGGGCGG [A1C A32C]  0.188
19. CACACUGCCAAUGCCGGUCUCAAGCCCGGAUAAAAGUGGAGGGGGCGG [A1C C20U]  0.187
20. CACACUGCCAAUGCCGGUGCCAAGCCCGGAUAAAAGUGGAGGGGGCGG [A1C C19G]  0.187
21. CACACUGCCAAUGCCGGUCCCAAGCCCGGAUAAAGGUGGAGGGGGCGG [A1C A35G]  0.186
22. CACACUGCCAAUGCCGGUCCCAAGCCCGAAUAAAAGUGGAGGGGGCGG [A1C G29A]  0.184
23. CACACUGCCAAUGCCGGUCCCAAGCCCUGAUAAAAGUGGAGGGGGCGG [A1C G28U]  0.183
24. CACACUGCCAAUGCCGGUCCCAAGCCCGGAUAAAAGUGGAGGGGGGGG [A1C C46G]  0.181
25. CACACUGCCAAUGCCGGUCCCAAGCCCGGAUGAAAGUGGAGGGGGCGG [A1C A32G]  0.18
26. CACACUGCCAAUGCCGGUCCCAAGCCCGGAUAAAAGUGGAGGGGGUGG [A1C C46U]  0.18
27. CACACUGCCAAUGCAGGUCCCAAGCCCGGAUAAAAGUGGAGGGGGCGG [A1C C15A]  0.179
28. CACACUGCCAAUGCCGGUCCCAAGCCCGGAUAAAAGUGGAGGGGGCGG [A1C]  0.175
29. CACACUGCCAAUGCCGGUCCCAAGCCCAGAUAAAAGUGGAGGGGGCGG [A1C G28A]  0.174
30. CACACUGCCAAUGCCGAUCCCAAGCCCGGAUAAAAGUGGAGGGGGCGG [A1C G17A]  0.172
31. CACCCUGCCAAUGCCGGUCCCAAGCCCGGAUAAAAGUGGAGGGGGCGG [A1C A4C]  0.171
32. CACACUGCCAAUGCCGGUCCCAACCCCGGAUAAAAGUGGAGGGGGCGG [A1C G24C]  0.168
33. CACACUGCCAAUGCCGUUCCCAAGCCCGGAUAAAAGUGGAGGGGGCGG [A1C G17U]  0.166
34. CACACUGCCAAUGCCGGUCCCAAGCCCGGAUAAACGUGGAGGGGGCGG [A1C A35C]  0.161
35. CAGACUGCCAAUGCCGGUCCCAAGCCCGGAUAAAAGUGGAGGGGGCGG [A1C C3G]  0.161
36. CACACUGCCAAUGCCGGUCCCAAGCCCGGAUAAAAGUGGAGAGGGCGG [A1C G42A]  0.16
37. CACACUGCCAAUGCCGGUCCCAAGCCCGGAUAAAACUGGAGGGGGCGG [A1C G36C]  0.159
38. CACACUGCCAAUGCCGGUCCCAAGCCCCGAUAAAAGUGGAGGGGGCGG [A1C G28C]  0.155
39. CACACUACCAAUGCCGGUCCCAAGCCCGGAUAAAAGUGGAGGGGGCGG [A1C G7A]  0.155
40. CACACUGCCAAUGCUGGUCCCAAGCCCGGAUAAAAGUGGAGGGGGCGG [A1C C15U]  0.153
41. CACACUGCCAAUGCCGGUCCCGAGCCCGGAUAAAAGUGGAGGGGGCGG [A1C A22G]  0.149
42. CACACUGCCACUGCCGGUCCCAAGCCCGGAUAAAAGUGGAGGGGGCGG [A1C A11C]  0.145
43. CACACUGCCAAUGCCGGUCCCUAGCCCGGAUAAAAGUGGAGGGGGCGG [A1C A22U]  0.14
44. CACACUGCCAAUGCCGGUCCCAAGCCCGGAUAAAAGUGGAGGAGGCGG [A1C G43A]  0.135
45. CACGCUGCCAAUGCCGGUCCCAAGCCCGGAUAAAAGUGGAGGGGGCGG [A1C A4G]  0.131
46. CACACUGCCAAUGCCGGUCCCAAGGCCGGAUAAAAGUGGAGGGGGCGG [A1C C25G]  0.13
47. CACACUGCCAAUGCCGGUCCCAAGCCCGGAUAAAUGUGGAGGGGGCGG [A1C A35U]  0.129
48. CACACUGCCAAUGCCGGUCCCAAGCCCGGAUAAAAGUGUAGGGGGCGG [A1C G39U]  0.129
49. CACACUGCCAAUGGCGGUCCCAAGCCCGGAUAAAAGUGGAGGGGGCGG [A1C C14G]  0.124
50. CACACUCCCAAUGCCGGUCCCAAGCCCGGAUAAAAGUGGAGGGGGCGG [A1C G7C]  0.121
51. CACACUGCCAAUACCGGUCCCAAGCCCGGAUAAAAGUGGAGGGGGCGG [A1C G13A]  0.12
52. CACACUGCCAAUGCCGGUCCCAAGCCCGGAUAAAAGUGGUGGGGGCGG [A1C A40U]  0.11
53. CACACUGCCAAUGCCGGUCGCAAGCCCGGAUAAAAGUGGAGGGGGCGG [A1C C20G]  0.0894
54. CACACUGCCCAUGCCGGUCCCAAGCCCGGAUAAAAGUGGAGGGGGCGG [A1C A10C]  0.0756
